Test results published in US20240270821A1, “GIP/GLP1/GCG TRI-RECEPTOR AGONISTS AND USES THEREOF” (priority 2023, published 2024).
Changes are numbered by the printed parent chain.

T1: human GIP receptor (human) (UniProt P48546)
T1 sequence (looked up): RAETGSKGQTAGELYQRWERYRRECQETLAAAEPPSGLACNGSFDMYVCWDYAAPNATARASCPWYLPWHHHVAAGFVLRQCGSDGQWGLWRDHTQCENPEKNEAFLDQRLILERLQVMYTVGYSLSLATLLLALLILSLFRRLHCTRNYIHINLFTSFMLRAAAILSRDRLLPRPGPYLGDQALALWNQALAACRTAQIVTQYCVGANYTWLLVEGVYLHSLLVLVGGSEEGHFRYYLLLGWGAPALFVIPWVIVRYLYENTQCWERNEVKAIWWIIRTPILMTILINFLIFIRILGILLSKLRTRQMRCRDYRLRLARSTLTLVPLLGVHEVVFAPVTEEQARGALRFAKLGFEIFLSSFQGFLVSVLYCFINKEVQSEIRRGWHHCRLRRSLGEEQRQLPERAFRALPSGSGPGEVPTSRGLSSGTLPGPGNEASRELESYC

B1: Example 949 (peptide)
chain: YXQGTFTSDXSXXLDKKAQXAFIEXLIEGGPSSGAPPPSGS
modifications: Aib, 4Pal, Orn, Me4Pal; acylated lysine; amide; synthetic construct; SITE 2: note = 2-Aminoisobutyric Acid; SITE 10: note = 3-(4-Pyridyl)-L-alanine; SITE 12: note = L-ornithine; SITE 13: note = alpha-methyl-leucine; SITE 17: note = Lysine is chemically modified through conjugation of the epsilon-amino group of the Lysine side chain with (2-[2-(2-
B2: Example 911 (peptide)
chain: B1 chain with X12Q, K16X, I27L
modifications: acylated Lys AEEA-γGlu-C18 diacid; non-natural residues; C-terminal amide; synthetic construct; SITE 2: note = 2-Aminoisobutyric Acid; SITE 10: note = 3-(4-Pyridyl)-L-alanine; SITE 13: note = alpha-methyl-leucine; SITE 16: note = L-ornithine; SITE 17: note = Lysine is chemically modified through conjugation of the epsilon-amino group of the Lysine side chain with (2-[2-(2-
B3: Example 909 (peptide)
chain: B1 chain with X12R, I27L
modifications: synthetic construct; SITE 2: note = 2-Aminoisobutyric Acid; SITE 10: note = 3-(4-Pyridyl)-L-alanine; SITE 13: note = alpha-methyl-leucine; SITE 17: note = Lysine is chemically modified through conjugation of the epsilon-amino group of the Lysine side chain with (2-[2-(2-Amino-ethoxy)-ethoxy]-acetyl)
B4: Example 922 (peptide)
chain: B1 chain with X12Q, X25Y, G29X
modifications: Lys acylated γGlu-C18 diacid; non-natural residues; C-amide; synthetic construct; SITE 2: note = 2-Aminoisobutyric Acid; SITE 10: note = 3-(4-Pyridyl)-L-alanine; SITE 13: note = alpha-methyl-leucine; SITE 17: note = Lysine is chemically modified through conjugation of the epsilon-amino group of the Lysine side chain with (gamma-Glu)-(D-Glutamic acid)2-CO-(CH2)
B5: Example 915 (peptide)
chain: B1 chain with X12K, X25Y, G29X
modifications: non-natural residues, acylated Lys, C-terminal amide; synthetic construct; SITE 2: note = 2-Aminoisobutyric Acid; SITE 10: note = 3-(4-Pyridyl)-L-alanine; SITE 13: note = alpha-methyl-leucine; SITE 17: note = Lysine is chemically modified through conjugation of the epsilon-amino group of the Lysine side chain with (2-[2-(2-Amino-ethoxy)-ethoxy]-acetyl)
B6: Example 916 (peptide)
chain: B1 chain with X12K, G29X
modifications: Aib, 4Pal, αMeL, Me4Pal; lysine acylated C18 diacid; amide; synthetic construct; SITE 2: note = 2-Aminoisobutyric Acid; SITE 10: note = 3-(4-Pyridyl)-L-alanine; SITE 13: note = alpha-methyl-leucine; SITE 17: note = Lysine is chemically modified through conjugation of the epsilon-amino group of the Lysine side chain with (2-[2-(2-Amino-ethoxy)-ethoxy]-acetyl)
B7: Example 912 (peptide)
chain: B1 chain with X10F, X12K, G29X
modifications: non-natural residues, AEEA-γGlu-C18 diacid lysine acylation, C-terminal amide; synthetic construct; SITE 2: note = 2-Aminoisobutyric Acid; SITE 13: note = alpha-methyl-leucine; SITE 17: note = Lysine is chemically modified through conjugation of the epsilon-amino group of the Lysine side chain with (2-[2-(2-Amino-ethoxy)-ethoxy]-acetyl)-(gamma-Glu)-CO-(CH2) 16-CO2H; SITE 20: n
B8: Example 934 (peptide)
chain: B1 chain with X12Q, A21Q
modifications: non-natural residues, acylated Lys ((γGlu)2-C18 diacid), C-terminal amide; synthetic construct; SITE 2: note = 2-Aminoisobutyric Acid; SITE 10: note = 3-(4-Pyridyl)-L-alanine; SITE 13: note = alpha-methyl-leucine; SITE 17: note = Lysine is chemically modified through conjugation of the epsilon-amino group of the Lysine side chain with (gamma-Glu)2-CO-(CH2)16-CO2H; SITE 20:
B9: Example 920 (peptide)
chain: B1 chain with X12Q, X25Y, G29X
modifications: non-natural residues; C18 diacid-γGlu-e on Lys; C-terminal amide; synthetic construct; SITE 2: note = 2-Aminoisobutyric Acid; SITE 10: note = 3-(4-Pyridyl)-L-alanine; SITE 13: note = alpha-methyl-leucine; SITE 17: note = Lysine is chemically modified through conjugation of the epsilon-amino group of the Lysine side chain with D-Glutamic acid-(gamma-Glu)-CO-(CH2)16
B10: Example 913 (peptide)
chain: B1 chain with X10F, X12Q, G29X
modifications: non-natural residues; acylated Lys C18 diacid; C-term amide; synthetic construct; SITE 2: note = 2-Aminoisobutyric Acid; SITE 13: note = alpha-methyl-leucine; SITE 17: note = Lysine is chemically modified through conjugation of the epsilon-amino group of the Lysine side chain with (2-[2-(2-Amino-ethoxy)-ethoxy]-acetyl)-(gamma-Glu)-CO-(CH2) 16-CO2H; SITE 20: n
B11: Example 951 (peptide)
chain: B1 chain with X12Q
modifications: Aib, 4Pal, Me4Pal, αMeL; lipidated Lys; C-terminal amide; synthetic construct; SITE 2: note = 2-Aminoisobutyric Acid; SITE 10: note = 3-(4-Pyridyl)-L-alanine; SITE 13: note = alpha-methyl-leucine; SITE 17: note = Lysine is chemically modified through conjugation of the epsilon-amino group of the Lysine side chain with (gamma-Glu)2-CO-(CH2)16-CO2H; SITE 20:
B12: Example 918 (peptide)
chain: B1 chain with X12Q, X25Y, G29X, G40E, S41G
modifications: non-natural residues; lipidated Lys AEEA-γGlu-C18 diacid; synthetic construct; SITE 2: note = 2-Aminoisobutyric Acid; SITE 10: note = 3-(4-Pyridyl)-L-alanine; SITE 13: note = alpha-methyl-leucine; SITE 17: note = Lysine is chemically modified through conjugation of the epsilon-amino group of the Lysine side chain with (2-[2-(2-Amino-ethoxy)-ethoxy]-acetyl)
B13: Example 902 (peptide)
chain: YXQGTFTSDXSKXLDKKAQXAFIEYLIEXGPSSGAPPPSGSEE
modifications: synthetic construct; SITE 2: note = 2-Aminoisobutyric Acid; SITE 10: note = 3-(4-Pyridyl)-L-alanine; SITE 13: note = alpha-methyl-leucine; SITE 17: note = Lysine is chemically modified through conjugation of the epsilon-amino group of the Lysine side chain with (2-[2-(2-Amino-ethoxy)-ethoxy]-acetyl)
B14: Example 928 (peptide)
chain: B13 chain with K12Q
modifications: acylated lysine γGlu-C18 diacid; non-natural residues; C-terminal amide; synthetic construct; SITE 2: note = 2-Aminoisobutyric Acid; SITE 10: note = 3-(4-Pyridyl)-L-alanine; SITE 13: note = alpha-methyl-leucine; SITE 17: note = Lysine is chemically modified through conjugation of the epsilon-amino group of the Lysine side chain with D-Glutamic acid-(gamma-Glu)-CO-(CH2)16
B15: Example 931 (peptide)
chain: B13 chain with K12Q
modifications: acylated Lys e-γGlu-e-C18 diacid; non-natural residues; C-terminal amide; synthetic construct; SITE 2: note = 2-Aminoisobutyric Acid; SITE 10: note = 3-(4-Pyridyl)-L-alanine; SITE 13: note = alpha-methyl-leucine; SITE 17: note = Lysine is chemically modified through conjugation of the epsilon-amino group of the Lysine side chain with D-Glutamic acid-(gamma-Glu)-D-Glutamic
B16: Example 930 (peptide)
chain: B13 chain with K12Q
modifications: acylated Lys γGlu-(e)2-C18 diacid; non-natural residues; C-terminal amide; synthetic construct; SITE 2: note = 2-Aminoisobutyric Acid; SITE 10: note = 3-(4-Pyridyl)-L-alanine; SITE 13: note = alpha-methyl-leucine; SITE 17: note = Lysine is chemically modified through conjugation of the epsilon-amino group of the Lysine side chain with (gamma-Glu)-(D-Glutamic acid)2-CO-(CH2)
B17: Example 905 (peptide)
chain: B13 chain
modifications: synthetic construct; SITE 2: note = 2-Aminoisobutyric Acid; SITE 10: note = 3-(4-Pyridyl)-L-alanine; SITE 13: note = alpha-methyl-leucine; SITE 17: note = Lysine is chemically modified through conjugation of the epsilon-amino group of the Lysine side chain with (gamma-Glu)2-CO-(CH2)16-CO2H; SITE 20:
B18: Example 929 (peptide)
chain: B13 chain with K12Q
modifications: non-natural residues, γGlu-C18 diacid acyl on K, C-terminal amide; synthetic construct; SITE 2: note = 2-Aminoisobutyric Acid; SITE 10: note = 3-(4-Pyridyl)-L-alanine; SITE 13: note = alpha-methyl-leucine; SITE 17: note = Lysine is chemically modified through conjugation of the epsilon-amino group of the Lysine side chain with (D-Glutamic acid)2-(gamma-Glu)-CO-(CH2)

Tests used:
Assay in all cases: cell-based or functional assay
hGLP-1R = hGLP-1R (Homo sapiens, UniProt P43220)
Chain of hGLP-1R (P43220 24-463): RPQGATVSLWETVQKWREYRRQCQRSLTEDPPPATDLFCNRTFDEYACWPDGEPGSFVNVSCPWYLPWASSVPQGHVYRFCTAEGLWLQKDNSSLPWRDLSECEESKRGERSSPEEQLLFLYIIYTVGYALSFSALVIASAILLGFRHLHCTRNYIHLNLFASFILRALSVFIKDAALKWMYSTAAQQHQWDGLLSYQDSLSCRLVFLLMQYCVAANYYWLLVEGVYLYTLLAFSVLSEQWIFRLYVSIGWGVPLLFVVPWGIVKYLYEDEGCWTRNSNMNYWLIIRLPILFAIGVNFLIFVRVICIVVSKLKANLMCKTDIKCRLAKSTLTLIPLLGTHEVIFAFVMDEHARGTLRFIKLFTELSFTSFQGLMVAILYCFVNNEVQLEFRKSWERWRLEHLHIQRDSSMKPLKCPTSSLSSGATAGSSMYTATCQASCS

[1] = target: T1, human GIP receptor (human)
[2] = target: human glucagon receptor (human) (UniProt P47871)
Chain of human glucagon receptor (human) (P47871 26-477): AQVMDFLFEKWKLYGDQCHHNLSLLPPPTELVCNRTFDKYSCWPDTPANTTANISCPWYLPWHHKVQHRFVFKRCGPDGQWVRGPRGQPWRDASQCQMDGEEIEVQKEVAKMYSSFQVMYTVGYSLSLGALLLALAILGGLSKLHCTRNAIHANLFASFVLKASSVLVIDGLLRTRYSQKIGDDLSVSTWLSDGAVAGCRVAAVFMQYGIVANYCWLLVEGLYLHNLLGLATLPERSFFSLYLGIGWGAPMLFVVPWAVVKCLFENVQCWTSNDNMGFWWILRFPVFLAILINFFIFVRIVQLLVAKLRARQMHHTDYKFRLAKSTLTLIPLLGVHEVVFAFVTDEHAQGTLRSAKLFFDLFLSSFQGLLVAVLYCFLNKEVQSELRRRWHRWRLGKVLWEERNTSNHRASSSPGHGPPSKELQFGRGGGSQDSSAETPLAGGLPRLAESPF

Binder	cAMP Rel EC50, nM (1% HSA) (hGLP-1R)	cAMP Rel EC50, nM (1% HSA) [1]	cAMP Rel EC50, nM (1% HSA) [2]	cAMP Rel EC50 (1% HSA) (hGLP-1R)	cAMP Rel EC50 (1% HSA) [1]	cAMP Rel EC50 (1% HSA) [2]	Relative cAMP EC50 (hGLP-1R)	Relative cAMP EC50 [1]	Relative cAMP EC50 [2]
B1	721 nM	26 nM	317 nM	–	–	–	–	–	–
B2	–	–	–	255 nM	26.6 nM	2390 nM	–	–	–
B3	–	–	–	243 nM	20.2 nM	1740 nM	1.72 nM	0.121 nM	6.82 nM
B4	–	–	–	357 nM	6.39 nM	1170 nM	–	–	–
B5	–	–	–	226 nM	15.3 nM	174 nM	–	–	–
B6	–	–	–	166 nM	4.78 nM	158 nM	–	–	–
B7	–	–	–	59.6 nM	6.15 nM	955 nM	–	–	–
B8	–	–	–	175 nM	28.1 nM	1380 nM	–	–	–
B9	–	–	–	322 nM	9.05 nM	1090 nM	–	–	–
B10	–	–	–	258 nM	5.62 nM	1140 nM	–	–	–
B11	382 nM	18.2 nM	657 nM	–	–	–	–	–	–
B12	–	–	–	484 nM	18 nM	590 nM	–	–	–
B13	–	–	–	232 nM	28.5 nM	1360 nM	2.58 nM	0.19 nM	15.9 nM
B14	–	–	–	604 nM	15.1 nM	1090 nM	–	–	–
B15	–	–	–	878 nM	20.8 nM	2300 nM	–	–	–
B16	–	–	–	824 nM	19.9 nM	1700 nM	–	–	–
B17	–	–	–	215 nM	10.4 nM	1390 nM	2.52 nM	0.217 nM	12.3 nM
B18	–	–	–	593 nM	22.6 nM	2690 nM	–	–	–
